To fix the notation:
B1: endogenous EXOSC3 (natural protein, mouse (endogenous in Neuro-2a), UniProt Q7TQK4 1-274, looked up)
chain: MAEVLSAGPESVAGCRARAVHKVLNQVVLPGEELVLPDHEDVDGLGGAGEQPLRLNAGARPRLRVVCGPGLRRCGDRLLVTKCGRLRHKEPSGGGGGVYWVDSQQKRYVPVKGDHVIGIVIAKSGDIFKVDVGGSEPASLSYLAFEGATKRNRPNVQVGDLIYGQCVVANKDMEPEMVCIDSCGRANGMGVIGQDGLLFKVTLGLIRKLLAPDCEIVQELGKLYPLEIVFGMNGRIWVKAKTIQQTLILANVLEACEHMTTEQRKQIFARLAES
B2: endogenous EXOSC9 (natural protein, mouse (endogenous in Neuro-2a), UniProt Q9JHI7 1-438, looked up)
chain: MKETPLSNCERRFLLRAIEEKKRLDGRQTYDYRNIRISFGTDYGCCIVELGKTRVLGQVSCELVSPKLNRATEGILFFNLELSQMAAPAFEPGRQSDLLVKLNRLLERCLRNSKCIDTESLCVVAGEKVWQIRVDLHLLNHDGNIIDAASIAAIVALCHFRRPDVSVQGEEVTLYTPEERDPVPLSIHHMPICVSFAFFQQGTYLLVDPNEREERVMDGLLVIAMNKHREICTIQSSGGIMLLKDQVFRCSKIAGVKVAEITELIQKALENDQRVRKEGGKFGFAESIANQRITAFKMETAPIDTSNIEERAEEIIAEAEPPPEVVSQPVLWTPGTAQIGDGIENSWGDLEDSEKEEEEEEGGIDEAVILDDTKMDTGEVSDIGSQGAPIVLSDSEEEEMIILEPEKNPKKIRAQTSANQKAPSKGQGKRKKKKRTAN
B3: endogenous EXOSC10 (natural protein, mouse (endogenous in Neuro-2a), UniProt P56960 1-887, looked up)
chain: MAPPSPREHQSAPATSATKPDAEMVLPGFPDADSFVKFALGSVVAVTKASGGLPQFGDEYDFYRSFPAFQAFCETQGDRLLQCMSRVMQYHGCRSNIKDRSKVTELEDKFDLLVDTNDVILERVGMLLDEASGVNKHQQPVLPAGLQVPKTIVSSWNRKAGEYGKKAKSETFRLLHAKNIVRPQLRFREKIDNSNTPFLPKIFVKPNARKPLPLALSKERRERPQDRPEDLDVPPALADFIHQQRTQQVEQDMFAHPYQYELDHFTPPQSVLQRPKPQLYRAVGETPCHLVSSLDELVELNEKLLGCQEFAVDLEHHSYRSFLGLTCLMQISTRTEDFIVDTLELRSDMYILNESLTDPAIVKVFHGADSDIEWLQKDFGLYVVNMFDTHQAARLLNLARHSLDHLLRLYCGVESNKQYQLADWRIRPLPEEMLSYARDDTHYLLYIYDRMRLELWERGNHQPVQLQVVWQRSRDICLKKFVKPIFTDESYLELYRKQKKHLNSQQLTAFQLLFAWRDKTARREDESYGYVLPNHMMLKIAEELPKEPQGIIACCNPVPPLVRQQINEMHLLIQQAREMPLLKSENAAGVRKSGPLPSAERLENDLFGPHDCSHAPPDNYQNTSTDGTLPLQKQPSLFTEGKEETSVDAGCLLATAVITLFSEPNTEEGGKTPLTVAQKKAQNIMQSFENPFRMFLPSLEHKAHISQAAKFDPSSKIYEISNRWKLASQVQVQKEPKEATKKKVAEQTAAREEAKEEAAAGVLEQAIPVRQQAALENATKKRERATSDLRTIEQKQEKKRLKSSKKAKDPDPPGKDFSPYDYSQSDFRAFAGDSKSKPSSQFDPNKLAPSGKKGVGAKKCKQSVGNKSMSFAVGKSDRGFRHNWPKR

Sequence of Myc-tagged mouse EXOSC5 p.Leu206His (Q9CRA8 whole entry L206H): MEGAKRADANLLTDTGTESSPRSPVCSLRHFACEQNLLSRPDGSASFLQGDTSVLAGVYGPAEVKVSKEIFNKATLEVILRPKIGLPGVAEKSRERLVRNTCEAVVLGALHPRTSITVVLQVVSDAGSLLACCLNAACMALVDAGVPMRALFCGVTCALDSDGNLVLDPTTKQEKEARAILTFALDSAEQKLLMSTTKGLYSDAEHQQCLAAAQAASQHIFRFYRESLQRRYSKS

The first test deals with Myc-tagged mouse EXOSC5 p.Thr114Ile (mouse, UniProt Q9CRA8 1-235, T114I). In words: co-IP.
Sequence of Myc-tagged mouse EXOSC5 p.Thr114Ile (Q9CRA8 whole entry T114I): as the sequence (Q9CRA8 whole entry L206H) above, with T114I, H206L counted along it
For B1, the “% EXOSC subunit bound relative to wild-type EXOSC5” value came to 28%.

For the molecule B2, the “% EXOSC subunit bound relative to wild-type EXOSC5” value is 24%.

B3: the “% EXOSC subunit bound relative to wild-type EXOSC5” value was 40%.

The next test has as its target Myc-tagged mouse EXOSC5 p.Leu206His (mouse, UniProt Q9CRA8 1-235, L206H). The test can be described thus: co-IP.
Consider B1, for which the “% EXOSC subunit bound relative to wild-type EXOSC5” value worked out at 9%.

On to B2, for which the “% EXOSC subunit bound relative to wild-type EXOSC5” value amounted to 16%.

Take B3: the “% EXOSC subunit bound relative to wild-type EXOSC5” value amounted to 21%.

For the origin of these results see paper doi:10.1101/2020.04.01.839274 (bioRxiv, 2020).
